# Assay results taken from paper PMC5986104.
# Target: NOTCH2-Myc (human) (UniProt Q04721)
# Chain of UniProt Q04721 (Q04721 26-2471): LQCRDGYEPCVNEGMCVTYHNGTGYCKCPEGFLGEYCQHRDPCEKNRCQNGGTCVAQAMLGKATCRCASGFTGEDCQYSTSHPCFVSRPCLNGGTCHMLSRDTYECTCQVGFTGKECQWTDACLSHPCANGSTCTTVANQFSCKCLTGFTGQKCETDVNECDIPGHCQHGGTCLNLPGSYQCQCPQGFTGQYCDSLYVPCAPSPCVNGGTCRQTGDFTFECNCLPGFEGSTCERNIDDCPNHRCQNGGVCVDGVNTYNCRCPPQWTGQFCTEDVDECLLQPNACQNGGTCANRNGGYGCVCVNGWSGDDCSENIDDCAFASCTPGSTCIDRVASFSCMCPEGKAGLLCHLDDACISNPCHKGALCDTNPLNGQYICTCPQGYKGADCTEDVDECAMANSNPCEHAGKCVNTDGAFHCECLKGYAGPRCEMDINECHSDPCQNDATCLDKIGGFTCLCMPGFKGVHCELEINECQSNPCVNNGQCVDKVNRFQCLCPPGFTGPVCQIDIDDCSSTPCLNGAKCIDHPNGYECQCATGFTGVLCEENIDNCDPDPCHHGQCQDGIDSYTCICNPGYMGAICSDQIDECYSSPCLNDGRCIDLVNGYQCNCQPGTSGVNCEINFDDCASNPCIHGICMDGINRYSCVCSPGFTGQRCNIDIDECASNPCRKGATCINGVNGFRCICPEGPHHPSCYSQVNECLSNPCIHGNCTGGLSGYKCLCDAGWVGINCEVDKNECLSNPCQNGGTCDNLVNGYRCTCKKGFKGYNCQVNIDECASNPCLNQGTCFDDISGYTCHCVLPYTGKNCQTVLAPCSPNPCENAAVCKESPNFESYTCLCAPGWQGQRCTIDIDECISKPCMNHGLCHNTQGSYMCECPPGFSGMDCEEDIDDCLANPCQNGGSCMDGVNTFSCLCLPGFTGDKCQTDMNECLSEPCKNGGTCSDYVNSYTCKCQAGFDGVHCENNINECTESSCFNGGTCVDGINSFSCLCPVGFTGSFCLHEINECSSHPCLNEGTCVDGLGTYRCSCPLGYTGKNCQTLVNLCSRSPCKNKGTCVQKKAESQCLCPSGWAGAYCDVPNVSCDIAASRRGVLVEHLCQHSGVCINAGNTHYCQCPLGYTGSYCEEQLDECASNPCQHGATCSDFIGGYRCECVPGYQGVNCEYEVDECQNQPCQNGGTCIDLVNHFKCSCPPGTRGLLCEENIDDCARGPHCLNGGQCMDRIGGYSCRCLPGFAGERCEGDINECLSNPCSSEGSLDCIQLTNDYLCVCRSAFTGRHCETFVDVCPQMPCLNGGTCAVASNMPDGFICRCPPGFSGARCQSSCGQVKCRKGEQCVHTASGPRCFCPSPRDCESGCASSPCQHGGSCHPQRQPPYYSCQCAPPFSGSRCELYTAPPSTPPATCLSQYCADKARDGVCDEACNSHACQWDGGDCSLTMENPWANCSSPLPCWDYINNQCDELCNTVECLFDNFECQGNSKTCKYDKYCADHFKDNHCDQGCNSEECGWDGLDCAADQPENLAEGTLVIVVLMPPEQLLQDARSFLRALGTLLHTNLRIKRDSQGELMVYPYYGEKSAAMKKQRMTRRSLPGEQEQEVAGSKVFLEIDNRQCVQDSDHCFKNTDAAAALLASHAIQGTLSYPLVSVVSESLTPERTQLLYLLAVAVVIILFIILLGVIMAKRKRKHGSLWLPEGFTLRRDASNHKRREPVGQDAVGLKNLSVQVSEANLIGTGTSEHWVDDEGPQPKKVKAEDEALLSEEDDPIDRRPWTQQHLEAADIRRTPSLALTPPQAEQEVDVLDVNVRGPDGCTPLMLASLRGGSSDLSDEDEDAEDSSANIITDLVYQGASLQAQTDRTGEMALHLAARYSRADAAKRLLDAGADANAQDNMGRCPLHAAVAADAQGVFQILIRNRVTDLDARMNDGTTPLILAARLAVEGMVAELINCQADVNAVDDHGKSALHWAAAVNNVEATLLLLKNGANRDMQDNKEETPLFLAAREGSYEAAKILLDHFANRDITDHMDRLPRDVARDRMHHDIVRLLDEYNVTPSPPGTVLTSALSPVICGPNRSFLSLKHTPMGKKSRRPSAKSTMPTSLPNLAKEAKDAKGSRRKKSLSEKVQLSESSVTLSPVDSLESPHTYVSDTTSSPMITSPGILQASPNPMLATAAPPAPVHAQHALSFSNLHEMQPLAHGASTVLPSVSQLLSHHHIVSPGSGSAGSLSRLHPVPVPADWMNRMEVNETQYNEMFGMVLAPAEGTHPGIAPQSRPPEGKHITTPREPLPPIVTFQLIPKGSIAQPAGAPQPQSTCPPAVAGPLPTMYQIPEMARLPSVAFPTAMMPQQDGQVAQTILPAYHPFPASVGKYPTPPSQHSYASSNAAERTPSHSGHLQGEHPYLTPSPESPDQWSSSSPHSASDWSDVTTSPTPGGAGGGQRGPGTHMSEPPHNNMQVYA
"NOTCH2-GAL4 reporter activation under baseline conditions, increase (Figure 6J) [%]","NOTCH2-GAL4 reporter activation under baseline conditions, increase (Figure 6H) [%]","NOTCH2-GAL4 reporter activation with JAG2 co-culture, increase (Figure 6I) [%]",Substance
63,–,–,"NOTCH2NL-HA^L,T197I (from UniProt P0DPK3 26-275) (natural protein)"
21,–,–,NOTCH2NL^L (from UniProt P0DPK3 26-275) (natural protein)
–,31,53,"NOTCH2NL^Sh,T197I (natural protein)"
